Data on six molecules can be found in patent US12146152B2, “Systems, methods, and compositions for correction of frameshift mutations” (Massachusetts Institute of Technology, priority 2019, dated 2024).

Holding throughout (assay type): cell-based
Experiment [1] relates to PCSK9 exon 12. Briefly: Indels editing in PCSK9 gene using Cas9 and blunting enzymes. Particulars: HEK293T cells, Cas9 + PCSK9 exon 12 sgRNA + blunting enzyme; for percentage of +1 insertion: Cas9 and sgRNA alone 14.4%; for percentage of +1 insertion / percentage of −1 deletion: FIGS. 11A-11H; for +1 insertion frequency: control 9.4%, FIGS. 12A-12B; for percentage of −1 deletion: Cas9 and sgRNA alone 4.3%. The method, then:
To test for the efficiency of inducing indels in a target gene using Cas9 and blunting enzymes, Cas9 and PCSK9 exon 12 targeting sgRNA were co-transferred into cultured mammalian cells in combination with DNA polymerase μ (POLM), EXOG, T4 DNA polymerase (T4pol), DNA polymerase λ (POLL), MGME1, RecJ exonuclease (RecJ) or Nuclease S1 (nucS). Cas9 and sgRNA alone served as the negative control. The occurrence of indels for the control and each of the combinations was measured. HEK293T cells were used.
Results for each of the combinations are presented in FIGS. 11A-11H and comparisons between the control and blunting enzymes are presented in FIGS. 12A-12B.

Experiment [2] concerns GYPB gene. The experiment in a line: Indels editing in GYPB gene using Cas9 and blunting enzymes. The conditions noted are these: cultured mammalian cells, Cas9 + GYPB sgRNA + blunting enzyme; for percentage of +1 insertion mutations: Cas9 and sgRNA alone 10.5%, FIGS. 13A-13H. How it is done: To test for the efficiency of inducing indels in a target gene using Cas9 and blunting enzymes, Cas9 and GYPB targeting sgRNA were co-transferred into cultured mammalian cells in combination with DNA polymerase μ (POLM), EXOG, T4 DNA polymerase (T4pol), DNA polymerase λ (POLL), MGME1, RecJ exonuclease (RecJ) or Nuclease S1 (nucS). Cas9 and sgRNA alone served as the negative control. The occurrence of indels for the control and each of the combinations was measured.

Experiment [3] deals with TPH2 exon 9. The experiment in a line: Indels editing in TPH2 gene using Cas9 and blunting enzymes. Particulars: cultured mammalian cells, Cas9 + TPH2 sgRNA + blunting enzyme; for percentage of +1 insertion mutations: Cas9 and sgRNA alone 0%, FIGS. 14A-14H. How it is done:
To test for the efficiency of inducing indels in a target gene using Cas9 and blunting enzymes, Cas9 and TPH2 targeting sgRNA were co-transferred into cultured mammalian cells in combination with POLM, EXOG, T4 polymerase, DNA polymerase λ (POLL), MGME1, RecJ exonuclease (RecJ) or Nuclease S1 (nucS). Cas9 and sgRNA alone served as the negative control. The occurrence of indels for the control and each of the combinations was measured.

In the case of “POLM: DNA polymerase μ, DSB-end blunting enzyme co-transferred with Cas9 and sgRNA (AIYLVEPRMGRSRRAFLTGLARSKGFRVLDA)”, the “percentage of +1 insertion” value in experiment [1] was 19.6%. Also, the entries for the “percentage of +1 insertion mutations” value in experiment [2] and in experiment [3] were 13.7% and 12.5%, respectively.

B1: T4pol: T4 DNA polymerase, DSB-end blunting enzyme co-transferred with Cas9 and sgRNA (protein, UniProt P04415 1-898, looked up)
DNA-directed DNA polymerase: MKEFYISIETVGNNIVERYIDENGKERTREVEYLPTMFRHCKEESKYKDIYGKNCAPQKFPSMKDARDWMKRMEDIGLEALGMNDFKLAYISDTYGSEIVYDRKFVRVANCDIEVTGDKFPDPMKAEYEIDAITHYDSIDDRFYVFDLLNSMYGSVSKWDAKLAAKLDCEGGDEVPQEILDRVIYMPFDNERDMLMEYINLWEQKRPAIFTGWNIEGFDVPYIMNRVKMILGERSMKRFSPIGRVKSKLIQNMYGSKEIYSIDGVSILDYLDLYKKFAFTNLPSFSLESVAQHETKKGKLPYDGPINKLRETNHQRYISYNIIDVESVQAIDKIRGFIDLVLSMSYYAKMPFSGVMSPIKTWDAIIFNSLKGEHKVIPQQGSHVKQSFPGAFVFEPKPIARRYIMSFDLTSLYPSIIRQVNISPETIRGQFKVHPIHEYIAGTAPKPSDEYSCSPNGWMYDKHQEGIIPKEIAKVFFQRKDWKKKMFAEEMNAEAIKKIIMKGAGSCSTKPEVERYVKFSDDFLNELSNYTESVLNSLIEECEKAATLANTNQLNRKILINSLYGALGNIHFRYYDLRNATAITIFGQVGIQWIARKINEYLNKVCGTNDEDFIAAGDTDSVYVCVDKVIEKVGLDRFKEQNDLVEFMNQFGKKKMEPMIDVAYRELCDYMNNREHLMHMDREAISCPPLGSKGVGGFWKAKKRYALNVYDMEDKRFAEPHLKIMGMETQQSSTPKAVQEALEESIRRILQEGEESVQEYYKNFEKEYRQLDYKVIAEVKTANDIAKYDDKGWPGFKCPFHIRGVLTYRRAVSGLGVAPILDGNKVMVLPLREGNPFGDKCIAWPSGTELPKEIRSDVLSWIDHSTLFQKSFVKPLAGMCESAGMDYEEKASLDFLFG
B1: in experiment [1], the “percentage of +1 insertion” value came to 36.75% and the “+1 insertion frequency” value is 30.3%. Further, the “percentage of −1 deletion mutations” value in experiment [2] (Cas9 and sgRNA alone 1.7%, FIG. 13D) stood at 9.05%. For the same molecule, in experiment [2], the “percentage of +1 insertion mutations” value was 13.4%. Also, in experiment [3] (Cas9 and sgRNA alone 13.2%, FIG. 14D), the “percentage of −1 deletion mutations” value amounted to 36.7%.

B2: MGME1: single-strand DNA specific nuclease, blunting enzyme co-transferred with Cas9 and sgRNA (protein)
chain: LQQTMTKQQVFLLERWKQRMILELGEDGFKEYTSSFHVCDHVYMKNLARDVFLQGKRFHEALESILSPQETLKERDENLLKSGYIESVQHILKDVSGVRALESAVQHETLNYIGLLDCVAEYQGKLCVIDWKTSEKPKPFIQSTFDNPLQVVAYMGAMNHDTNYSFQVQCGLIVVAYKDGSPAHPHFMDAELCSQYWIKWLLRLEEYTEKKKNQNIQKPEYSE
As for B2, the “percentage of −1 deletion” value in experiment [1] was 6.35%.

B3: POLL: DNA polymerase λ, DSB-end blunting enzyme co-transferred with Cas9 and sgRNA (protein)
chain: CLQERRLVDVAGFSIFIPSRYLDHPQPSKAEQDASIPPGTHEALLQTALSPPPPPTRPVSPPQKAKEAPNTQAQPISDDEASDGEETQVSAADLEALISGHYPTSLEGDCEPSPAPAVLDKWVCAQPSSQKATNHNLHITEKLEVLAKAYSVQGDKWRALGYAKAINALKSFHKPVTSYQEACSIPGIGKRMAEKIIEILESGHLRKLDHISESVPVLELFSNIWGAGTKTAQMWYQQGFRSLEDIRSQASLTTQQAIGLKHYSDFLERMPREEATEIEQTVQKAAQAFNSGLLCVACGSYRRGKATCGDVDVLITHPDGRSHRGIFSRLLDSLRQEGFLTDDLVSQEENGQQQKYLGVCRLPGPGRRHRRLDIIVVPYSEFACALLYFTGSAHFNRSMRALAKTKGMSLSEHALSTAVVRNTHGCKVGPGRVLPTPTEKDVFRLLGLPYREPAERDW
In the case of B3, in experiment [1], the “percentage of +1 insertion” value was 39.55% and the “+1 insertion frequency” value turned out to be 35.0%. Further, in experiment [2], the “percentage of +1 insertion mutations” value is 22.1%. Moreover, the “percentage of +1 insertion mutations” value in experiment [3] worked out at 2.95%.

B4: EXOG: single-strand DNA specific nuclease, blunting enzyme co-transferred with Cas9 and sgRNA (protein)
chain: WSRGHMAPAGNNKFSSKAMAETFYLSNIVPQDFDNNSGYWNRIEMYCRELTERFEDVWVVSGPLTLPQTRGDGKKIVSYQVIGEDNVAVPSHLYKVILARRSSVSTEPLALGAFVVPNEAIGFQPQLTEFQVSLQDLEKLSGLVFFPHLDRTSDIRNICSVDTCKLLDFQEFTLYLSTRKIEGARSVLRLEKIMENLKNAEIEPDDYFMSRYEKKLEELKAKEQSGTQIRKPS
On to B4, for which the “percentage of −1 deletion” value in experiment [1] worked out at 5.05%.

B5: RecJ: RecJ exonuclease, blunting enzyme co-transferred with Cas9 and sgRNA (protein)
chain: TVDNGISSHAGVEHARSLGIPVIVTDHHLPGDTLPAAEAIINPNLRDCNFPSKSLAGVGVAFYLMLALRTFLRDQGWFDERNIAIPNLAELLDLVALGTVADVVPLDANNRILTWQGMSRIRAGKCRPGIKALLEVANRDAQKLAASDLGFALGPRLNAAGRLDDMSVGVALLLCDNIGEARVLANELDALNQTRKEIEQGMQIEALTLCEKLERSRDTLPGGLAMYHPEWHQGVVGILASRIKERFHRPVIAFAPAGDGTLKGSGRSIQGLHMRDALERLDTLYPGMMLKFGGHAMAAGLSLEEDKFKLFQQRFGELVTEWLDPSLLQGEVVSDGPLSPAEMTMEVAQLLRDAGPWGQMFPEPLFDGHFRLLQQRLVGERHLKVMVEPVGGGPLLDGIAFNVDTALWPDNGVREVQLAYKLDINEFRGNRSLQIIIDNIWPI
Take B5: the “percentage of −1 deletion” value in experiment [1] is recorded as 5.5%.
